Source: PMC4255277
Like-named read-outs stand apart in the source and are kept apart here.

Assays:
[1] = target: melanocortin-4 receptor (zebrafish) (zebrafish) (UniProt B0V1P1); assay: competition binding assay on cells
[2] = target: melanocortin-4 receptor (zebrafish) (zebrafish) (UniProt B0V1P1); assay: competition binding assay on cells; remark: listed apart in the source

Sequence of UniProt B0V1P1 (B0V1P1 whole entry): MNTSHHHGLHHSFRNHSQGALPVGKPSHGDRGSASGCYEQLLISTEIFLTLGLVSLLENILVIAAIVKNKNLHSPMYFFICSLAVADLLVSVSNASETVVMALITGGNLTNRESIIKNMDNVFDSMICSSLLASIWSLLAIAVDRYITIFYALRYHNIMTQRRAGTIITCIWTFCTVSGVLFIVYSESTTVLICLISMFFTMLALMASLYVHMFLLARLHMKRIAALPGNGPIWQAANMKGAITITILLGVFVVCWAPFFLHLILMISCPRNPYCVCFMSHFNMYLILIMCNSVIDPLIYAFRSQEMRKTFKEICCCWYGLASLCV

IC50 [1]: 50 nM
IC50 [2]: 45 nM
Substance: α–melanocyte-stimulating hormone (peptide)
